From US20120288494A1 (published 2012)
Numbering of substitutions follows the chain as printed.

T1: Human Chimera 1 (human IL-12 p40 Y16R) (human, UniProt P29460 23-328)
T1 construct: Predominantly human p40 with the rat residue; HEK293.F supernatant; also called Site 7a
T1 sequence: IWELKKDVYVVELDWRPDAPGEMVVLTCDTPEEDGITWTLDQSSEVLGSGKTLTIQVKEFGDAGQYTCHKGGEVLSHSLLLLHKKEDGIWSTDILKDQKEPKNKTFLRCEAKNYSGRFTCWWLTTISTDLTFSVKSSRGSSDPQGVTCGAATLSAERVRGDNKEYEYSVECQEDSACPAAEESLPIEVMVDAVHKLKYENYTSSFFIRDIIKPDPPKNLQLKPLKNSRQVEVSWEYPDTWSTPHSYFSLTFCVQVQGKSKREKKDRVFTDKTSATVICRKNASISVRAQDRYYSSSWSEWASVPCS

T2: Human Chimera 2 (human IL-12 p40 D87N) (human, UniProt P29460 23-328)
T2 construct: Predominantly human p40 with the rat residue; HEK293.F supernatant; also called Site 7b
T2 sequence: T1 sequence with R16Y, D87N

T3: Human Chimera 9 (human IL-12 p40 G35D & G61L) (human, UniProt P29460 23-328)
T3 construct: Predominantly human p40 with rat residues; the two residues were only mutated together; also called Sites 9, 10
T3 chain: T1 sequence with R16Y, G35D, G61L

T4: human IL-12 p70 (human, UniProt P29460 23-328; P29459 23-219)
T4 construct: also called hIL-12; IL-12 p70 (p40/p35)
T4 sequence 1: T1 sequence with R16Y
T4 sequence 2: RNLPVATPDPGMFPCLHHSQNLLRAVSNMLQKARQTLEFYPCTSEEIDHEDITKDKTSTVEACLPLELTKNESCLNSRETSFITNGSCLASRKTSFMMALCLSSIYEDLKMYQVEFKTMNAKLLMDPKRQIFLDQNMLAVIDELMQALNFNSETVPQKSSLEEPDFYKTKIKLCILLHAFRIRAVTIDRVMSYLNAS

B1: J695 (antibody, IgG1, V domains shown)
VH: QVQLVESGGGVVQPGRSLRLSCAASGFTFSSYGMHWVRQAPGKGLEWVAFIRYDGSNKYYADSVKGRFTISRDNSKNTLYLQMNSLRAEDTAVYYCKTHGSHDNWGQGTMVTVSS
VL: QSVLTQPPSVSGAPGQRVTISCSGSRSNIGSNTVKWYQQLPGTAPKLLIYYNDQRPSGVPDRFSGSKSGTSASLAITGLQAEDEADYYCQSYDRYTHPALLFGTGTKVTVLG
notes: Recombinant human mAb from CHO cells, IgG1 heavy and lambda light chain constant regions; also called human mAb J695
B2: 103-14 (antibody, V domains shown)
VH: B1 VH with E6Q, N84K
VL: SYVLTQPPSVSGTPGQRVTISCSGGRSNIGSNTVKWYQQLPGTAPKLLIYGNDQRPSGVPDRFSGSKSGTSASLAITGVQAEDEADYYCQSYDRGFTGSMVFGTGTKVTVL

Columns and labels:
[1] = biological target: T1, Human Chimera 1 (human IL-12 p40 Y16R); assay: SPR (Biacore), mAb immobilised, chimera supernatant injected
Method: (§1) Specifically, antibody was covalently linked via free amine groups to the Biacore chip dextran matrix by first activating carboxyl groups on the matrix with 100 mM N-hydroxysuccinimide (NHS) and 400 mM N-Ethyl-N′-(3-dimethylaminopropyl)-carbodiimide hydrochloride (EDC). This was completed across four different flow cells. […] Typically, 5000 resonance units were immobilized. Unreacted matrix EDC-esters were deactivated by an injection of 1 M ethanolamine.
(§2) To ascertain the epitope pattern of several different monoclonal antibodies against IL-12p40 supernatant samples, a direct binding assay was conducted. Aliquots of recombinant human IL-12p40 (100 nM) were injected across covalently immobilized antibody on the Biacore dextran chip biosensor surface at a flow rate of 25 mL/min. Before injection of the antigen and immediately afterward, HBS-EP buffer alone flowed through each flow cell. […] The response was measured in Resonance Units (RU's). […] The covalently immobilized antibody-coupled surfaces were completely regenerated using 10 mM HCl (5 min contact time) and retained their full binding capacity over twenty cycles.

[2] = biological target: T2, Human Chimera 2 (human IL-12 p40 D87N); assay: as above
Method: as §1, §2

[3] = biological target: T3, Human Chimera 9 (human IL-12 p40 G35D & …); assay: SPR (Biacore), mAb immobilised; grade of the mutation's effect: - = no effect
Method: as §1, §2

human IL-12 p70 [4] = biological target: T4, human IL-12 p70; assay: method not stated in the sentence (Biacore named in Example 1A)
human IL-12 p70 [5] = biological target: T4, human IL-12 p70; assay: not stated in the sentence (FIG. 2)

Row | binding result [1] | binding result [2] | binding result [3] | Kd (human IL-12 p70 [4]) [nM] | fold increase in efficacy over Joe 9 (human IL-12 p70 [5]) [fold] | Binder
1 | no binding | no binding | binds | 0.102 | – | B1
2 | – | – | – | – | 1000 | B2
